These results are taken from patent publication US20230051304A1 (Regeneron, published 2023).

Where two headings read alike, the source gives them in different places.

Test [1] addresses murine IL12 receptor complex (IL12Rβ1 and IL12Rβ2) (mouse) (UniProt Q60837). As to the kind of experiment: cell-based or functional assay.
Test [2] shares this target. As to the kind of experiment: cell-based or functional assay. This is another data set of the same source.
For test [3] the target is unchanged. As to the kind of experiment: cell-based or functional assay. The source holds these as a separate data set.
Test [4] concerns the target T1, murine IL12 receptor complex (IL12Rβ1 and IL12Rβ2) (mouse, UniProt Q60837 20-738; P97378 24-874).
T1 construct: whole, on cells; also called IL12 receptors beta 1 (IL12Rβ1) and beta 2 (IL12Rβ2); IL12Rb1 and IL12Rb2
As to the kind of experiment: flow cytometry on activated primary mouse T cells (CD25+ CD8+ CD90.2+), anti-human Fc detection, MFI. As for the experimental part: Spleens were harvested from C57BL/6 mice and dissociated manually. Splenocytes were stimulated by culturing for 48 hours in RPMI+10% FBS+2 mM L-glutamine/Pen/Strep in the presence of anti-CD3 and anti-CD28 activation beads (Thermo/11456D) at a 1:3 (beads:splenocytes) ratio and in the presence of 30 U/mL human IL-2 (proleukin). […] Cells were washed once before plating 200,000 cells per well in a 96-well plate and staining indicated concentration of test IL12-Fc fusion proteins or variant molecules for 2 hours on ice. Cells were washed twice before staining for the Fc portion using an ahuFC antibody (Jackson Immuno 109-136-170). Data was acquired using a BD LSRFortessa™ X-20 instrument. Data plots represent geometric mean fluorescence intensity (MFI) of the ahuFC signal from CD25+, CD8+CD90.2+ T cells.

Chain of murine IL12 receptor complex (IL12Rβ1 and IL12Rβ2) (mouse) (Q60837 20-738, chain 1 of 2): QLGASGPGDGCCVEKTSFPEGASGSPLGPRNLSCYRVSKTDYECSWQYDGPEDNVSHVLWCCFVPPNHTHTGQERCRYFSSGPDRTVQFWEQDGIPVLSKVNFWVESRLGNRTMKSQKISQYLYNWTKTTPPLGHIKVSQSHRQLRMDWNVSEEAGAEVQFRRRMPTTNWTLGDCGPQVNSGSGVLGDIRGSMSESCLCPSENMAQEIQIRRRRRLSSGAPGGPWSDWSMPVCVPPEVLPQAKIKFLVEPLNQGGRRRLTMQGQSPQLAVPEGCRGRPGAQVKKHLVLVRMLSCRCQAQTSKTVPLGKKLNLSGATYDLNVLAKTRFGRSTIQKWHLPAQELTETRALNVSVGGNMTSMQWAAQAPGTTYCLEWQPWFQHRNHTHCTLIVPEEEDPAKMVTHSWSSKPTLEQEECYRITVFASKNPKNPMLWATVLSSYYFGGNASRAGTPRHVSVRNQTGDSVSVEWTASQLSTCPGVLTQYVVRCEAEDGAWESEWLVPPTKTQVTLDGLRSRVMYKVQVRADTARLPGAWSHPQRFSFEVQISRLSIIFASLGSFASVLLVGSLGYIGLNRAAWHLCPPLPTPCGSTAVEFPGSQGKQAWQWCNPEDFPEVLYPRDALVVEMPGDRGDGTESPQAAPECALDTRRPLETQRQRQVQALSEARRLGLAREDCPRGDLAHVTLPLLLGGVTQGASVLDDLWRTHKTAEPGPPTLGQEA
Chain of murine IL12 receptor complex (IL12Rβ1 and IL12Rβ2) (mouse) (P97378 24-874, chain 2 of 2, further chain): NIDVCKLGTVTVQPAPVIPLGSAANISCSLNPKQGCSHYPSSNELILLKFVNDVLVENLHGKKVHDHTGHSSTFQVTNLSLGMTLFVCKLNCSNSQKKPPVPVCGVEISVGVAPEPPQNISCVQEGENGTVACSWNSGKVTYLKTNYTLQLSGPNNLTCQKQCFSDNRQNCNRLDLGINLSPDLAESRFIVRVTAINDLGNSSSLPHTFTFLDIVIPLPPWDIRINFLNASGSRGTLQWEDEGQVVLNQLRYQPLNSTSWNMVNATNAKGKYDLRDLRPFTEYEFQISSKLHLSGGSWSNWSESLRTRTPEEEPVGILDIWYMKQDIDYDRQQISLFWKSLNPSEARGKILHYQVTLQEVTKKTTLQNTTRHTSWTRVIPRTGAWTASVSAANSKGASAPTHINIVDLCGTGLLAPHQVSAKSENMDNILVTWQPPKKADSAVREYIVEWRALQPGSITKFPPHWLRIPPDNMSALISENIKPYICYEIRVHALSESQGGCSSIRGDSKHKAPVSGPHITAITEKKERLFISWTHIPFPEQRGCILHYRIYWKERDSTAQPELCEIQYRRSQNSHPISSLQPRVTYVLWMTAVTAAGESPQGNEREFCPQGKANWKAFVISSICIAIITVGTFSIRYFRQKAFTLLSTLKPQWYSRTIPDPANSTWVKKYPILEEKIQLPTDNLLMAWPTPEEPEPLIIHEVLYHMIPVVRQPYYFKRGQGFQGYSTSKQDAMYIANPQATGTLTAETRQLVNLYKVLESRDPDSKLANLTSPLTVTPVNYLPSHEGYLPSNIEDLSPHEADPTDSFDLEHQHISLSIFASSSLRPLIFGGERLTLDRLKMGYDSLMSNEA
T1 sequence (Q60837 20-738, chain 1 of 2): as the sequence (Q60837 20-738, chain 1 of 2) above
T1 sequence (P97378 24-874, chain 2 of 2): as the sequence (P97378 24-874, chain 2 of 2, further chain) above

B1: recombinant mIL12 (ligand, mouse)
chain 1: RVIPVSGPARCLSQSRNLLKTTDDMVKTAREKLKHYSCTAEDIDHEDITRDQTSTLKTCLPLELHKNESCLATRETSSTTRGSCLPPQKTSLMMTLCLGSIYEDLKMYQTEFQAINAALQNHNHQQIILDKGMLVAIDELMQSLNHNGETLRQKPPVGEADPYRVKMKLCILLHAFSTRVVTINRVMGYLSSA
chain 2: MWELEKDVYVVEVDWTPDAPGETVNLTCDTPEEDDITWTSDQRHGVIGSGKTLTITVKEFLDAGQYTCHKGGETLSHSHLLLHKKENGIWSTEILKNFKNKTFLKCEAPNYSGRFTCSWLVQRNMDLKFNIKSSSSSPDSRAVTCGMASLSAEKVTLDQRDYEKYSVSCQEDVTCPTAEETLPIELALEARQQNKYENYSTSFFIRDIIKPDPPKNLQMKPLKNSQVEVSWEYPDSWSTPHSYFSLKFFVRIQRKKEKMKETEEGCNQKGAFLVEKTSTEVQCKGGNVCVQAQDRYYNSSCSKWACVPCRVRS
In test [1], B1 showed an EC50 (M); STAT3-Luc reporter, CTLL2/STAT3-Luc cells of 5.56e-11 M; a Fold induction at 6.25 nM; STAT3-Luc reporter, CTLL2/STAT3-Luc cells of 12.2 fold; a Max fold induction; STAT3-Luc reporter, CTLL2/STAT3-Luc cells of 12.4 fold. In test [2], this molecule yielded an EC50 (M); STAT3-Luc reporter, CTLL2/STAT3-Luc cells of 3.71e-10 M and a Max fold induction; STAT3-Luc reporter, CTLL2/STAT3-Luc cells of 17.8 fold. In test [3], this molecule had an EC50 (M); STAT3-Luc reporter, CTLL2/STAT3-Luc cells of 3.46e-11 M; a Fold induction at 20 nM; STAT3-Luc reporter, CTLL2/STAT3-Luc cells of 18.8 fold; a Max fold induction; STAT3-Luc reporter, CTLL2/STAT3-Luc cells of 19.1 fold.

B2: Fc-p40-p35 x Fc-IL12Rβ1(D1) (Fc fusion)
chain 1: ESKYGPPCPPCPAPPVAGPSVFLFPPKPKDTLMISRTPEVTCVVVDVSQEDPEVQFNWYVDGVEVHNAKTKPREEQFNSTYRVVSVLTVLHQDWLNGKEYKCKVSNKGLPSSIEKTISKAKGQPREPQVYTLPPSQEEMTKNQVSLSCAVKGFYPSDIAVEWESNGQPENNYKTTPPVLDSDGSFFLVSRLTVDKSRWQEGNVFSCSVMHEALHNRFTQKSLSLSPGKGGGGSGGGGSGGGGSQLGASGPGDGCCVEKTSFPEGASGSPLGPRNLSCYRVSKTDYECSWQYDGPEDNVSHVLWCCFVPPNHTHTGQERCRYFSSGPDRTVQFWEQDGIPVLSKVNFWVESRLGNRTMKSQKISQYLYNWTKTTPPL
chain 2: ESKYGPPCPPCPAPPVAGPSVFLFPPKPKDTLMISRTPEVTCVVVDVSQEDPEVQFNWYVDGVEVHNAKTKPREEQFNSTYRVVSVLTVLHQDWLNGKEYKCKVSNKGLPSSIEKTISKAKGQPREPQVYTLPPSQEEMTKNQVSLWCLVKGFYPSDIAVEWESNGQPENNYKTTPPVLDSDGSFFLYSRLTVDKSRWQEGNVFSCSVMHEALHNHYTQKSLSLSLGKGGGGSGGGGSGGGGSMWELEKDVYVVEVDWTPDAPGETVNLTCDTPEEDDITWTSDQRHGVIGSGKTLTITVKEFLDAGQYTCHKGGETLSHSHLLLHKKENGIWSTEILKNFKNKTFLKCEAPNYSGRFTCSWLVQRNMDLKFNIKSSSSSPDSRAVTCGMASLSAEKVTLDQRDYEKYSVSCQEDVTCPTAEETLPIELALEARQQNKYENYSTSFFIRDIIKPDPPKNLQMKPLKNSQVEVSWEYPDSWSTPHSYFSLKFFVRIQRKKEKMKETEEGCNQKGAFLVEKTSTEVQCKGGNVCVQAQDRYYNSSCSKWACVPCRVRSGGGGSGGGGSGGGGSRVIPVSGPARCLSQSRNLLKTTDDMVKTAREKLKHYSCTAEDIDHEDITRDQTSTLKTCLPLELHKNESCLATRETSSTTRGSCLPPQKTSLMMTLCLGSIYEDLKMYQTEFQAINAALQNHNHQQIILDKGMLVAIDELMQSLNHNGETLRQKPPVGEADPYRVKMKLCILLHAFSTRVVTINRVMGYLSSA
notes: Receptor-masked monovalent murine IL12; also called hIgG4s(HoleStar)-mIL12Rb1(D1) x hIgG4s(Knob)-mIL12p40-p35
Regarding B2, the binding result in test [4] is “binds”.
